Where “and” joins values, the source holds several entries; their conditions need not be identical. Equal entries are not always repeated. Bounds are passed on as bounds.

Assay in all cases: Number and Brightness (N&B) fluorescence fluctuation microscopy
Experiment [1] addresses PUUV SP-mCh2-Gc (Puumala orthohantavirus glycoprotein Gc labelled with mCherry2) (Puumala orthohantavirus (PUUV), strain Sotkamo/V-2969/81).
Experiment [2] concerns the target PUUV SP-mCh2-Gn (Puumala orthohantavirus glycoprotein Gn labelled with mCherry2) (Puumala orthohantavirus (PUUV), strain Sotkamo/V-2969/81).
Experiment [3] deals with PUUV YFP-NP (Puumala orthohantavirus nucleoprotein labelled with yellow fluorescent protein) (Puumala orthohantavirus (PUUV), strain Sotkamo/V-2969/81) (UniProt P27313).

The substance “PUUV SP-mCh2-Gc (Puumala orthohantavirus glycoprotein Gc labelled with mCherry2) (natural protein)” gave a stoichiometry N in experiment [1] of less than 8.

As to “PUUV SP-mCh2-Gn (Puumala orthohantavirus glycoprotein Gn labelled with mCherry2) (natural protein)”, the stoichiometry N in experiment [2] was less than 4.

Turning to “PUUV YFP-NP (Puumala orthohantavirus nucleoprotein labelled with yellow fluorescent protein) (from UniProt P27313 1-433) (natural protein)”, in experiment [3], the stoichiometry N is < 10 and 4 and 8.

As usually defined, the stoichiometry N is a count of units in the complex or per binding partner.

The record behind these values is paper PMC12298772.
